From IntAct's records for PubMed 18242179 come the findings set out here.

First the molecules themselves.
B1: Calcium/calmodulin-dependent protein kinase kinase 1 (Homo sapiens), Q8N5S9 (parent)
chain: MEGGPAVCCQDPRAELVERVAAIDVTHLEEADGGPEPTRNGVDPPPRARAASVIPGSTSRLLPARPSLSARKLSLQERPAGSYLEAQAGPYATGPASHISPRAWRRPTIESHHVAISDAEDCVQLNQYKLQSEIGKGAYGVVRLAYNESEDRHYAMKVLSKKKLLKQYGFPRRPPPRGSQAAQGGPAKQLLPLERVYQEIAILKKLDHVNVVKLIEVLDDPAEDNLYLVFDLLRKGPVMEVPCDKPFSEEQARLYLRDVILGLEYLHCQKIVHRDIKPSNLLLGDDGHVKIADFGVSNQFEGNDAQLSSTAGTPAFMAPEAISDSGQSFSGKALDVWATGVTLYCFVYGKCPFIDDFILALHRKIKNEPVVFPEEPEISEELKDLILKMLDKNPETRIGVPDIKLHPWVTKNGEEPLPSEEEHCSVVEVTEEEVKNSVRLIPSWTTVILVKSMLRKRSFGNPFEPQARREERSMSAPGNLLVKEGFGEGGKSPELPGVQEDEAAS
partner: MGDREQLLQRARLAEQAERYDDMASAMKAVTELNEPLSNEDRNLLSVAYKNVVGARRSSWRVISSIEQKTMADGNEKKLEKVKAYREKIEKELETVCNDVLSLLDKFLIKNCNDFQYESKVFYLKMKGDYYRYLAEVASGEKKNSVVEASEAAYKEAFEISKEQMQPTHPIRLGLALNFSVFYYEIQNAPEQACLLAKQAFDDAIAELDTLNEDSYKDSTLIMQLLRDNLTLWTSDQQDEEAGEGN

One experiment covers variants of B1. Particulars: with 1433f_human YWHAH.
Consider S74A, for which the “effect of a mutation on the interaction” value is given as “disrupting interaction”. Consider S475A, for which the “effect of a mutation on the interaction” value is on record as “disrupting interaction”.

Variants of B1 are the subject of the next experiment. The conditions noted are these: with 1433f_human YWHAH. The source holds these as a separate data set.
In the case of S52A;S74A;T108A;S475A, the “effect of a mutation on the interaction” value is listed as “disrupting interaction”.

In another experiment the parent is B1. Particulars: with 1433f_human YWHAH. The source holds these as a separate data set.
Turning to S52A;S74A;S458A;S475A, the “effect of a mutation on the interaction” value was “disrupting interaction”.

Variants of B1 are the subject of another experiment. Particulars: with 1433f_human YWHAH. The source holds these as a separate data set.
With S52A;T108A;S458A;S475A, the “effect of a mutation on the interaction” value is “decreasing interaction”.
